According to US20260265696A1, “HUMAN IPSC DERIVED AMELOBLASTS AND USES THEREOF” (UNIVERSITY OF WASHINGTON, priority 2021, published 2026):

B1: FGFR2-binder: computationally designed protein that specifically binds and inhibits the activity of the FGFR2; binding sequence SEQ ID NO. 1 (protein)
chain: MGDRRKEMDKVYRTAYKRITSTPDKEKRKEVVKEATEQLRRIAKDEEEKKKAAYMISFLKTLGLEHHHHHH
B2: BMP4: bone morphogenic protein-4 (protein, UniProt P12644 293-408, looked up)
Bone morphogenetic protein 4: SPKHHSQRARKKNKNCRRHSLYVDFSDVGWNDWIVAPPGYQAFYCHGDCPFPLADHLNSTNHAIVQTLVNSVNSSIPKACCVPTELSAISMLYLDEYDKVVLKNYQEMVVEGCGCR

Tested on: hiPSCs (WTC-11) differentiating to ameloblasts (iAM)
Experiment: AMBN expression (QRT-PCR) in hiPSC-derived ameloblast (iAM) differentiation, day 10 to day 16, factors removed or added
Format: cell-based, human
Method: FIGS. 7A-7E: (FIG. 7A) Schematic of the 16-day differentiation protocol produced, which targets the identified signaling pathways utilizing growth factors and small molecules to transition through the ameloblast developmental trajectory. […] Each study was performed in triplicate, with error bars representing SEM. (FIG. 7C) The efficiency of each pathway activated in the differentiation from day 10 to day 16 were assessed by removing each agonist one at a time or adding FGFR2 mini binder to inhibit the FGFR2 pathway. AMBN expression was assessed in QRT-PCR, and each condition was performed in triplicate. Significance was determined by unpaired Student's t-test; ***p<0.001; ****p<0.0001; Graph error bars are the means±SEM.
To dissect which pathways were essential for the differentiation from day 10 to day 16, the process of elimination was used (FIG. 7C). […] It was hypothesized that the cells in culture secrete enough FGF ligands to saturate the receptors, and any exogenous ligands would have minimal effects. To test this hypothesis, a computationally designed protein was used, FGFR2 mini-binder (FGFR-mb), that specifically binds and inhibits the activity of the FGFR2 (Cao et al., 2022). […]
RNA was extracted using Trizol (Life Technologies) according to manufacturer's instructions. RNA samples were treated with Turbo DNase (Thermo Fisher Scientific) and quantified using Nanodrop ND-1000. […]

Row | Molecule | expression of AMBN on adding FGFR2 mini-binder (50 nM FGFR-mb added at day 14, harvested at day 16) | expression of AMBN when the factor is removed (factor removed independently from differentiation day 10 to day 16, compared to when all factors are present)
1 | B1 | almost totally abolished | –
2 | B2 | – | significantly reduced to less than half
